From patent US20230406885A1, “CYCLIC PEPTIDES FOR TRAPPING INTERLEUKIN-1 BETA” (MERCK SHARP & DOHME LLC, priority 2022, published 2023)
*1 amine or outer side, *2 acyl side, *3 side chain or, on linkers, in order; H or OH if unused. [ ]: non-standard residue; d: D form. 3AzaPhe4AcPip = (S)-3-(6-(4-acetylpiperazin-1-yl)pyridin-3-yl)-2-aminopropanoic acid, CC(=O)N1CCN(c2ccc(C[C@H](N[*:1])C(=O)[*:2])cn2)CC1; Pro(trans-4-NH2) = O=C([C@@H]1C[C@@H](N[*:3])CN1[*:1])[*:2]; Trp(βS-Me,4-F) = C[C@@H](c1c[nH]c2cccc(F)c12)[C@H](N)C(=O)O; Bip(4'-COOH) = N[C@@H](Cc1ccc(-c2ccc(C(=O)O)cc2)cc1)C(=O)O; hQ = L-homoglutamine, NC(=O)CCC[C@H](N[*:1])C(=O)[*:2]; Phe(4-COOH) = N[C@@H](Cc1ccc(C(=O)O)cc1)C(=O)O; h3Pal(5-CN) = N#Cc1cncc(CC[C@H](N)C(=O)O)c1; Ala(4-THP) = N[C@@H](CC1CCOCC1)C(=O)O; hTyr = N[C@@H](CCc1ccc(O)cc1)C(=O)O; h4Pal = N[C@@H](CCc1ccncc1)C(=O)O; hLys = NCCCCC[C@H](N)C(=O)O; dDab = NCC[C@@H](N)C(=O)O; dNMeA = CN[C@H](C)C(=O)O

B1: SEQ ID NO: 6 (peptide)
peptide: cyclo([3AzaPhe4AcPip]W[Phe(4-COOH)]G[Pro(trans-4-NH2)][Trp(βS-Me,4-F)]D[dNMeA]G[Bip(4'-COOH)]KL[dA][hTyr])
SMILES: CC(=O)N1CCN(c2ccc(C[C@@H]3NC(=O)[C@H](CCc4ccc(O)cc4)NC(=O)[C@@H](C)NC(=O)[C@H](CC(C)C)NC(=O)[C@H](CCCCN)NC(=O)[C@H](Cc4ccc(-c5ccc(C(=O)O)cc5)cc4)NC(=O)CNC(=O)[C@@H](C)N(C)C(=O)[C@H](CC(=O)O)NC(=O)[C@H]([C@@H](C)c4c[nH]c5cccc(F)c45)NC(=O)[C@@H]4C[C@@H](N)CN4C(=O)CNC(=O)[C@H](Cc4ccc(C(=O)O)cc4)NC(=O)[C@H](Cc4c[nH]c5ccccc45)NC3=O)cn2)CC1
B2: SEQ ID NO: 60 (peptide)
peptide: cyclo([Bip(4'-COOH)]W[Phe(4-COOH)]G[Pro(trans-4-NH2)][Trp(βS-Me,4-F)]D[dNMeA]G[Bip(4'-COOH)]FL[dA][hTyr])
SMILES: CC(C)C[C@@H]1NC(=O)[C@H](Cc2ccccc2)NC(=O)[C@H](Cc2ccc(-c3ccc(C(=O)O)cc3)cc2)NC(=O)CNC(=O)[C@@H](C)N(C)C(=O)[C@H](CC(=O)O)NC(=O)[C@H]([C@@H](C)c2c[nH]c3cccc(F)c23)NC(=O)[C@@H]2C[C@@H](N)CN2C(=O)CNC(=O)[C@H](Cc2ccc(C(=O)O)cc2)NC(=O)[C@H](Cc2c[nH]c3ccccc23)NC(=O)[C@H](Cc2ccc(-c3ccc(C(=O)O)cc3)cc2)NC(=O)[C@H](CCc2ccc(O)cc2)NC(=O)[C@@H](C)NC1=O
B3: SEQ ID NO: 61 (peptide)
peptide: cyclo([Bip(4'-COOH)]W[Phe(4-COOH)]G[Pro(trans-4-NH2)][Trp(βS-Me,4-F)]D[dNMeA]G[Bip(4'-COOH)][h4Pal]L[dA][hTyr])
SMILES: CC(C)C[C@@H]1NC(=O)[C@H](CCc2ccncc2)NC(=O)[C@H](Cc2ccc(-c3ccc(C(=O)O)cc3)cc2)NC(=O)CNC(=O)[C@@H](C)N(C)C(=O)[C@H](CC(=O)O)NC(=O)[C@H]([C@@H](C)c2c[nH]c3cccc(F)c23)NC(=O)[C@@H]2C[C@@H](N)CN2C(=O)CNC(=O)[C@H](Cc2ccc(C(=O)O)cc2)NC(=O)[C@H](Cc2c[nH]c3ccccc23)NC(=O)[C@H](Cc2ccc(-c3ccc(C(=O)O)cc3)cc2)NC(=O)[C@H](CCc2ccc(O)cc2)NC(=O)[C@@H](C)NC1=O
B4: SEQ ID NO: 62 (peptide)
peptide: cyclo([Bip(4'-COOH)]W[Phe(4-COOH)]G[Pro(trans-4-NH2)][Trp(βS-Me,4-F)]D[dNMeA]G[Bip(4'-COOH)][hLys]L[dA][hTyr])
SMILES: CC(C)C[C@@H]1NC(=O)[C@H](CCCCCN)NC(=O)[C@H](Cc2ccc(-c3ccc(C(=O)O)cc3)cc2)NC(=O)CNC(=O)[C@@H](C)N(C)C(=O)[C@H](CC(=O)O)NC(=O)[C@H]([C@@H](C)c2c[nH]c3cccc(F)c23)NC(=O)[C@@H]2C[C@@H](N)CN2C(=O)CNC(=O)[C@H](Cc2ccc(C(=O)O)cc2)NC(=O)[C@H](Cc2c[nH]c3ccccc23)NC(=O)[C@H](Cc2ccc(-c3ccc(C(=O)O)cc3)cc2)NC(=O)[C@H](CCc2ccc(O)cc2)NC(=O)[C@@H](C)NC1=O
B5: SEQ ID NO: 63 (peptide)
peptide: cyclo([Bip(4'-COOH)]W[Phe(4-COOH)]G[Pro(trans-4-NH2)][Trp(βS-Me,4-F)]D[dNMeA]G[Bip(4'-COOH)][hQ]L[dA][hTyr])
SMILES: CC(C)C[C@@H]1NC(=O)[C@H](CCCC(N)=O)NC(=O)[C@H](Cc2ccc(-c3ccc(C(=O)O)cc3)cc2)NC(=O)CNC(=O)[C@@H](C)N(C)C(=O)[C@H](CC(=O)O)NC(=O)[C@H]([C@@H](C)c2c[nH]c3cccc(F)c23)NC(=O)[C@@H]2C[C@@H](N)CN2C(=O)CNC(=O)[C@H](Cc2ccc(C(=O)O)cc2)NC(=O)[C@H](Cc2c[nH]c3ccccc23)NC(=O)[C@H](Cc2ccc(-c3ccc(C(=O)O)cc3)cc2)NC(=O)[C@H](CCc2ccc(O)cc2)NC(=O)[C@@H](C)NC1=O
B6: SEQ ID NO: 64 (peptide)
peptide: cyclo([Bip(4'-COOH)]W[Phe(4-COOH)]G[Pro(trans-4-NH2)][Trp(βS-Me,4-F)]D[dNMeA]G[Bip(4'-COOH)]K[Ala(4-THP)][dA][h3Pal(5-CN)])
SMILES: C[C@@H]1C(=O)NCC(=O)N[C@@H](Cc2ccc(-c3ccc(C(=O)O)cc3)cc2)C(=O)N[C@@H](CCCCN)C(=O)N[C@@H](CC2CCOCC2)C(=O)N[C@H](C)C(=O)N[C@@H](CCc2cncc(C#N)c2)C(=O)N[C@@H](Cc2ccc(-c3ccc(C(=O)O)cc3)cc2)C(=O)N[C@@H](Cc2c[nH]c3ccccc23)C(=O)N[C@@H](Cc2ccc(C(=O)O)cc2)C(=O)NCC(=O)N2C[C@H](N)C[C@H]2C(=O)N[C@@H]([C@@H](C)c2c[nH]c3cccc(F)c23)C(=O)N[C@@H](CC(=O)O)C(=O)N1C
B7: SEQ ID NO: 65 (peptide)
peptide: cyclo([Bip(4'-COOH)]W[Phe(4-COOH)]G[Pro(trans-4-NH2)][Trp(βS-Me,4-F)]D[dNMeA]G[Bip(4'-COOH)]K[Ala(4-THP)][dA][hTyr])
SMILES: C[C@@H]1C(=O)NCC(=O)N[C@@H](Cc2ccc(-c3ccc(C(=O)O)cc3)cc2)C(=O)N[C@@H](CCCCN)C(=O)N[C@@H](CC2CCOCC2)C(=O)N[C@H](C)C(=O)N[C@@H](CCc2ccc(O)cc2)C(=O)N[C@@H](Cc2ccc(-c3ccc(C(=O)O)cc3)cc2)C(=O)N[C@@H](Cc2c[nH]c3ccccc23)C(=O)N[C@@H](Cc2ccc(C(=O)O)cc2)C(=O)NCC(=O)N2C[C@H](N)C[C@H]2C(=O)N[C@@H]([C@@H](C)c2c[nH]c3cccc(F)c23)C(=O)N[C@@H](CC(=O)O)C(=O)N1C
B8: SEQ ID NO: 66 (peptide)
peptide: cyclo([Bip(4'-COOH)]W[Phe(4-COOH)]G[Pro(trans-4-NH2)][Trp(βS-Me,4-F)]D[dNMeA]G[Bip(4'-COOH)]KL[dA][h3Pal(5-CN)])
SMILES: CC(C)C[C@@H]1NC(=O)[C@H](CCCCN)NC(=O)[C@H](Cc2ccc(-c3ccc(C(=O)O)cc3)cc2)NC(=O)CNC(=O)[C@@H](C)N(C)C(=O)[C@H](CC(=O)O)NC(=O)[C@H]([C@@H](C)c2c[nH]c3cccc(F)c23)NC(=O)[C@@H]2C[C@@H](N)CN2C(=O)CNC(=O)[C@H](Cc2ccc(C(=O)O)cc2)NC(=O)[C@H](Cc2c[nH]c3ccccc23)NC(=O)[C@H](Cc2ccc(-c3ccc(C(=O)O)cc3)cc2)NC(=O)[C@H](CCc2cncc(C#N)c2)NC(=O)[C@@H](C)NC1=O
B9: SEQ ID NO: 67 (peptide)
peptide: cyclo([Bip(4'-COOH)]W[Phe(4-COOH)]G[Pro(trans-4-NH2)][Trp(βS-Me,4-F)]D[dNMeA]G[Bip(4'-COOH)]KL[dA][hTyr])
SMILES: CC(C)C[C@@H]1NC(=O)[C@H](CCCCN)NC(=O)[C@H](Cc2ccc(-c3ccc(C(=O)O)cc3)cc2)NC(=O)CNC(=O)[C@@H](C)N(C)C(=O)[C@H](CC(=O)O)NC(=O)[C@H]([C@@H](C)c2c[nH]c3cccc(F)c23)NC(=O)[C@@H]2C[C@@H](N)CN2C(=O)CNC(=O)[C@H](Cc2ccc(C(=O)O)cc2)NC(=O)[C@H](Cc2c[nH]c3ccccc23)NC(=O)[C@H](Cc2ccc(-c3ccc(C(=O)O)cc3)cc2)NC(=O)[C@H](CCc2ccc(O)cc2)NC(=O)[C@@H](C)NC1=O
B10: SEQ ID NO: 68 (peptide)
peptide: cyclo([Bip(4'-COOH)]W[Phe(4-COOH)]G[Pro(trans-4-NH2)][Trp(βS-Me,4-F)]D[dNMeA]G[Bip(4'-COOH)]KL[dDab][hTyr])
SMILES: CC(C)C[C@@H]1NC(=O)[C@H](CCCCN)NC(=O)[C@H](Cc2ccc(-c3ccc(C(=O)O)cc3)cc2)NC(=O)CNC(=O)[C@@H](C)N(C)C(=O)[C@H](CC(=O)O)NC(=O)[C@H]([C@@H](C)c2c[nH]c3cccc(F)c23)NC(=O)[C@@H]2C[C@@H](N)CN2C(=O)CNC(=O)[C@H](Cc2ccc(C(=O)O)cc2)NC(=O)[C@H](Cc2c[nH]c3ccccc23)NC(=O)[C@H](Cc2ccc(-c3ccc(C(=O)O)cc3)cc2)NC(=O)[C@H](CCc2ccc(O)cc2)NC(=O)[C@@H](CCN)NC1=O
B11: SEQ ID NO: 69 (peptide)
peptide: cyclo([Bip(4'-COOH)]W[Phe(4-COOH)]G[Pro(trans-4-NH2)][Trp(βS-Me,4-F)]D[dNMeA]G[Bip(4'-COOH)]KL[dS][hTyr])
SMILES: CC(C)C[C@@H]1NC(=O)[C@H](CCCCN)NC(=O)[C@H](Cc2ccc(-c3ccc(C(=O)O)cc3)cc2)NC(=O)CNC(=O)[C@@H](C)N(C)C(=O)[C@H](CC(=O)O)NC(=O)[C@H]([C@@H](C)c2c[nH]c3cccc(F)c23)NC(=O)[C@@H]2C[C@@H](N)CN2C(=O)CNC(=O)[C@H](Cc2ccc(C(=O)O)cc2)NC(=O)[C@H](Cc2c[nH]c3ccccc23)NC(=O)[C@H](Cc2ccc(-c3ccc(C(=O)O)cc3)cc2)NC(=O)[C@H](CCc2ccc(O)cc2)NC(=O)[C@@H](CO)NC1=O
B12: SEQ ID NO: 7 (peptide)
peptide: cyclo([3AzaPhe4AcPip]W[Phe(4-COOH)]G[Pro(trans-4-NH2)][Trp(βS-Me,4-F)]D[dNMeA]G[Bip(4'-COOH)]KL[dDab][hTyr])
SMILES: CC(=O)N1CCN(c2ccc(C[C@@H]3NC(=O)[C@H](CCc4ccc(O)cc4)NC(=O)[C@@H](CCN)NC(=O)[C@H](CC(C)C)NC(=O)[C@H](CCCCN)NC(=O)[C@H](Cc4ccc(-c5ccc(C(=O)O)cc5)cc4)NC(=O)CNC(=O)[C@@H](C)N(C)C(=O)[C@H](CC(=O)O)NC(=O)[C@H]([C@@H](C)c4c[nH]c5cccc(F)c45)NC(=O)[C@@H]4C[C@@H](N)CN4C(=O)CNC(=O)[C@H](Cc4ccc(C(=O)O)cc4)NC(=O)[C@H](Cc4c[nH]c5ccccc45)NC3=O)cn2)CC1

The binders below were run against Recombinant human IL-1β (BioLegend 579404) (human, UniProt P01584 117-269) (assay: cell-based or functional assay).
For B1, the “MRC5 IC50” value was 0.0666 nM. B2 was tested, and the “MRC5 IC50” value was 0.0689 nM. In the case of B3, the “MRC5 IC50” value is reported as 0.312 nM. B4 was tested, and the “MRC5 IC50” value was 0.283 nM. With B5 the “MRC5 IC50” value was 0.063 nM. For B6, the “MRC5 IC50” value was 0.0182 nM. For B7, the “MRC5 IC50” value was 0.0158 nM. In the case of B8, the “MRC5 IC50” value is reported as 0.0299 nM. With B9 the “MRC5 IC50” value was 0.046 nM. In the case of B10, the “MRC5 IC50” value is reported as 0.296 nM. In the case of B11, the “MRC5 IC50” value is reported as 0.334 nM. B12 was tested, and the “MRC5 IC50” value was 0.135 nM.
